These results are taken from publication PMC11294625, “The kinesin-3 KIF1C undergoes liquid-liquid phase separation for accumulation of specific transcripts at the cell periphery”.

The target of data set [1] is T1, KIF1C(CC4+IDR)-mNG (Homo sapiens, UniProt O43896 785-1103).
T1 sequence: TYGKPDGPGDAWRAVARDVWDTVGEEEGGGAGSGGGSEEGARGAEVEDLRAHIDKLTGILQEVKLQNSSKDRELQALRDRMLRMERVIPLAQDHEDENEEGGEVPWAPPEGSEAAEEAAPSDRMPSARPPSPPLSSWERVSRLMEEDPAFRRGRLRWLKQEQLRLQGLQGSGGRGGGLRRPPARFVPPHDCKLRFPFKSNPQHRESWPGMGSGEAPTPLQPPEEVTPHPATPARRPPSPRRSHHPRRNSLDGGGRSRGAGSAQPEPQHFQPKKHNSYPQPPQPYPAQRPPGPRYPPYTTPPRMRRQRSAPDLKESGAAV
Put plainly: in vitro condensate recruitment (fluorescence microscopy); 15-60 nM RNA, 100 nM protein, 100 mM NaCl; selectively enriched in condensates; 100 nM KIF1C(CC4+IDR)-mNG in 100 mM NaCl buffer, no crowding agent; pH and temperature of the assay not given in the material. The following applies: protein: recombinant; tags: C-terminal mNeonGreen; His-SUMO removed by TEV; chain copies: 2; label: 5'-Cy5; single strand.

Data set [2] addresses T1, KIF1C(CC4+IDR)-mNG. Description: in vitro condensate recruitment (fluorescence microscopy); 120-600 nM RNA, 100 nM protein, 100 mM NaCl; enriched (condensates inhibited at uM RNA); 100 nM KIF1C(CC4+IDR)-mNG in 100 mM NaCl buffer, no crowding agent; pH and temperature of the assay not given in the material. The following applies: protein: recombinant; tags: C-terminal mNeonGreen; His-SUMO removed by TEV; chain copies: 2; label: 5'-Cy5; single strand.

For the molecule GUGUGUGUGUGU (ssRNA, methylation at each nucleotide (printed mG/mU, probably 2'-O-methyl)) [GU-rich RNA oligo, Cy5-(GU)6], in data set [1], the binding result is given as “binds”. Take AAAAAAAAAAAAA (ssRNA, methylation at each nucleotide (printed mA, probably 2'-O-methyl)) [polyA RNA oligo, Cy5-A13]: in data set [2], the binding result is listed as “binds”.
